How the values were obtained:
AMC008-VRC01 complex = target: T1, AMC008-VRC01 complex (HIV-1 clade B, isolate AMC008 …, stabilised); assay: mass photometry; AMC008 with two excess Fabs (b12 and 3BC315, or VRC01 and 3BC315), 1:9 molar ratio in PBS, on ice 30 minutes, diluted in PBS; mass increase divided by 55 kDa per Fab; details: both partners purified
T1 construct: source: formed from purified AMC008 Env (Expi293F) and excess VRC01 Fab (1:9 molar ratio in PBS, on ice 30 minutes); copies: 3 + 3 + 3 + 3

AMC008-b12 complex = target: T2, AMC008-b12 complex (HIV-1 clade B, isolate AMC008 …, stabilised); assay: as above; details: both partners purified
T2 construct: source: formed from purified AMC008 Env (Expi293F) and excess b12 Fab (1:9 molar ratio in PBS, on ice 30 minutes); copies: 3 + 3 + 3 + 3

B1: antibody 3BC315 Fab (Fab, V domains shown)
VH: QVQLVQSGAEMKDPGASVKVSCRASGYKFTDYYMHWVRQAPGQGLEWVGWVNTNGGFTKYGAKFQGRVTVTRDTSTNTVFLELSRLTFGDTAMYFCARPMRPVSHGIDYSGLFVFQFWGRGTMVTVSS
VL: QSALTQPASVSASPGQSITISCSGTRSDVGGYDFVSWYQQHPGKVPKLIIYEVTKRPSGIPQRFSGSKSGNTASLTISGLQADDEADYYCCSYANYDKLILGGGTKLTVL
notes: source: Expi293F, heavy and light chain co-expressed; IgG purified on Protein A, digested with papain, Fab in the Protein A flow-through
AMC008-VRC01 complex
  stoichiometry N: ~1 Fab
AMC008-b12 complex
  stoichiometry N: ~3 Fabs

— paper PMC13168245 (Nature Communications, 2026)
